# Measured values from patent US20030165463.
# Biological target: Cre recombinase (Bacteriophage P1?) (UniProt P06956)
# Assay: cell_activity
# Conditions: pCA36 + pBHGloxΔE1,3 in 293Cre4 cells; 15 in 293 cells, homologous recombination background only
# UniProt P06956, sequence (P06956 whole entry): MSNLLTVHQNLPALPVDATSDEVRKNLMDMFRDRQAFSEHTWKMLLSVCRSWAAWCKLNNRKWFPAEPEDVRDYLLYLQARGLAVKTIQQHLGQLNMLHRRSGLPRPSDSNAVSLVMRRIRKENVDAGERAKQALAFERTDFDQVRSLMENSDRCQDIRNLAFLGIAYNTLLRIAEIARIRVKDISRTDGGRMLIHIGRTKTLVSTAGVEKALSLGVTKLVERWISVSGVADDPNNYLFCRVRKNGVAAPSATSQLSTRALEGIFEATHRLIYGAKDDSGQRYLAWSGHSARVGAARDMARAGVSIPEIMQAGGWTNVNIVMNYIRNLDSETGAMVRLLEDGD
substance,measurement,value
shuttle plasmid pCA36 without loxP,activity (total plaques in 6 dishes),10
